# In patent publication US20180155451A1 (published 2018):
# B1: GpH7-A5/GpH7-B3 variant P271_08L/GpL16-k0 (antibody, human IgG1, kappa)
# heavy 1: not shown
# heavy 2: not shown
# light: DIVMTQSPLSLPVTPGEPASISCQASESLVHSNRNTYLHWYLQKPGQSPQLLIYKVSNRFSGVPDRFSGSGSGTDFTLKISRVEAEDVGVYYCSQNTHVPPTFGQGTKVEIERTVAAPSVFIFPPSDEQLKSGTASVVCLLNNFYPREAKVQWKVDNALQSGNSQESVTEQDSKDSTYSLSSTLTLSKADYEKHKVYACEVTHQGLSSPVTKSFNRGEC
# notes: heterodimerized antibody, mutation in one H chain only; also called P271_08L He Ab
# B2: GpH7-A5/GpH7-B3 variant S337_11K/GpL16-k0 (antibody, human IgG1, kappa)
# heavy 1: not shown
# heavy 2: not shown
# light: B1 light
# notes: heterodimerized antibody, mutation in one H chain only; also called S337_11K He Ab
# B3: GpH7-A5/GpH7-B3 variant S267_19Q/GpL16-k0 (antibody, human IgG1, kappa)
# heavy 1: not shown
# heavy 2: not shown
# light: B1 light
# notes: heterodimerized antibody, mutation in one H chain only; also called S267_19Q He Ab
# B4: GpH7-A5/GpH7-B3 variant S267_10E/GpL16-k0 (antibody, human IgG1, kappa)
# heavy 1: not shown
# heavy 2: not shown
# light: B1 light
# notes: heterodimerized antibody, mutation in one H chain only; also called S267_10E He Ab
# B5: GpH7-A5/GpH7-B3 variant Y296_02A/GpL16-k0 (antibody, human IgG1, kappa)
# heavy 1: not shown
# heavy 2: not shown
# light: B1 light
# notes: heterodimerized antibody, mutation in one H chain only; also called Y296_02A He Ab
# B6: GpH7-A5/GpH7-B3 variant S337_14T/GpL16-k0 (antibody, human IgG1, kappa)
# heavy 1: not shown
# heavy 2: not shown
# light: B1 light
# notes: heterodimerized antibody, mutation in one H chain only; also called S337_14T He Ab
# B7: GpH7-A5/GpH7-B3 variant S267_14T/GpL16-k0 (antibody, human IgG1, kappa)
# heavy 1: not shown
# heavy 2: not shown
# light: B1 light
# notes: heterodimerized antibody, mutation in one H chain only; also called S267_14T He Ab
# B8: GpH7-A5/GpH7-B3 variant S324_09D/GpL16-k0 (antibody, human IgG1, kappa)
# heavy 1: not shown
# heavy 2: not shown
# light: B1 light
# notes: heterodimerized antibody, mutation in one H chain only; also called S324_09D He Ab
# B9: GpH7-A5/GpH7-B3 variant Q295_10E/GpL16-k0 (antibody, human IgG1, kappa)
# heavy 1: not shown
# heavy 2: not shown
# light: B1 light
# notes: heterodimerized antibody, mutation in one H chain only; also called Q295_10E He Ab
# B10: GpH7-A5/GpH7-B3 variant P271_18N/GpL16-k0 (antibody, human IgG1, kappa)
# heavy 1: not shown
# heavy 2: not shown
# light: B1 light
# notes: heterodimerized antibody, mutation in one H chain only; also called P271_18N He Ab
# B11: GpH7-A5/GpH7-B3 variant S267_06M/GpL16-k0 (antibody, human IgG1, kappa)
# heavy 1: not shown
# heavy 2: not shown
# light: B1 light
# notes: heterodimerized antibody, mutation in one H chain only; also called S267_06M He Ab
# B12: GpH7-A5/GpH7-B3 variant S337_18N/GpL16-k0 (antibody, human IgG1, kappa)
# heavy 1: not shown
# heavy 2: not shown
# light: B1 light
# notes: heterodimerized antibody, mutation in one H chain only; also called S337_18N He Ab
# B13: GpH7-A5/GpH7-B3 variant S267_18N/GpL16-k0 (antibody, human IgG1, kappa)
# heavy 1: not shown
# heavy 2: not shown
# light: B1 light
# notes: heterodimerized antibody, mutation in one H chain only; also called S267_18N He Ab
# B14: GpH7-A5/GpH7-B3 variant T335_01G/GpL16-k0 (antibody, human IgG1, kappa)
# heavy 1: not shown
# heavy 2: not shown
# light: B1 light
# notes: heterodimerized antibody, mutation in one H chain only; also called T335_01G He Ab
# B15: GpH7-A5/GpH7-B3 variant T335_02A/GpL16-k0 (antibody, human IgG1, kappa)
# heavy 1: not shown
# heavy 2: not shown
# light: B1 light
# notes: heterodimerized antibody, mutation in one H chain only; also called T335_02A He Ab
# B16: GpH7-A5/GpH7-B3 variant S324_10E/GpL16-k0 (antibody, human IgG1, kappa)
# heavy 1: not shown
# heavy 2: not shown
# light: B1 light
# notes: heterodimerized antibody, mutation in one H chain only; also called S324_10E He Ab
# B17: GpH7-A5/GpH7-B3 variant S298_09D/GpL16-k0 (antibody, human IgG1, kappa)
# heavy 1: not shown
# heavy 2: not shown
# light: B1 light
# notes: heterodimerized antibody, mutation in one H chain only; also called S298_09D He Ab
# B18: GpH7-A5/GpH7-B3 variant P271_19Q/GpL16-k0 (antibody, human IgG1, kappa)
# heavy 1: not shown
# heavy 2: not shown
# light: B1 light
# notes: heterodimerized antibody, mutation in one H chain only; also called P271_19Q He Ab
# B19: GpH7-A5/GpH7-B3 variant S337_16H/GpL16-k0 (antibody, human IgG1, kappa)
# heavy 1: not shown
# heavy 2: not shown
# light: B1 light
# notes: heterodimerized antibody, mutation in one H chain only; also called S337_16H He Ab
# B20: GpH7-A5/GpH7-B3 variant S239_10E/GpL16-k0 (antibody, human IgG1, kappa)
# heavy 1: not shown
# heavy 2: not shown
# light: B1 light
# notes: heterodimerized antibody, mutation in one H chain only; also called S239_10E He Ab
# B21: GpH7-A5/GpH7-B3 variant Q295_12R/GpL16-k0 (antibody, human IgG1, kappa)
# heavy 1: not shown
# heavy 2: not shown
# light: B1 light
# notes: heterodimerized antibody, mutation in one H chain only; also called Q295_12R He Ab
# B22: GpH7-A5/GpH7-B3 variant P271_10E/GpL16-k0 (antibody, human IgG1, kappa)
# heavy 1: not shown
# heavy 2: not shown
# light: B1 light
# notes: heterodimerized antibody, mutation in one H chain only; also called P271_10E He Ab
# B23: GpH7-A5/GpH7-B3 variant T335_13S/GpL16-k0 (antibody, human IgG1, kappa)
# heavy 1: not shown
# heavy 2: not shown
# light: B1 light
# notes: heterodimerized antibody, mutation in one H chain only; also called T335_13S He Ab
# Molecular target: T1, FcγRIa extracellular domain with C-terminal His tag (human, UniProt P12314 16-292)
# T1 construct: extracellular domain; soluble analyte in Biacore; also called FcgRI; CD64
# Test: SPR (Biacore), relative FcγRIa binding, GpH7-A5/GpH7-B3/GpL16-k0 (HeCon Ab) = 100
# T1 sequence (P12314 16-292): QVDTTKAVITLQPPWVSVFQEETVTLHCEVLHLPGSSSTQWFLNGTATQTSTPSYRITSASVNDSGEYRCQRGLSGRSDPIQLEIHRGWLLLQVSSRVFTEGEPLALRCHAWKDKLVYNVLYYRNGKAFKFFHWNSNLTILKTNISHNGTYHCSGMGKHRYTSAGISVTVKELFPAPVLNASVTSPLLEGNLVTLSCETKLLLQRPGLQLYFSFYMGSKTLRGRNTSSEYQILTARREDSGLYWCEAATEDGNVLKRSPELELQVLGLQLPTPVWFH
row,Binder,He/Con_1a
1,B1,102 % of control
2,B2,104 % of control
3,B3,102 % of control
4,B4,106 % of control
5,B5,103 % of control
6,B6,105 % of control
7,B7,102 % of control
8,B8,104 % of control
9,B9,103 % of control
10,B10,103 % of control
11,B11,106 % of control
12,B12,105 % of control
13,B13,102 % of control
14,B14,104 % of control
15,B15,103 % of control
16,B16,105 % of control
17,B17,106 % of control
18,B18,103 % of control
19,B19,105 % of control
20,B20,105 % of control
21,B21,100 % of control
22,B22,103 % of control
23,B23,105 % of control
